Publication PMC3589125 (Structure (London, England : 1993), 2012)
Peptide text beside a SMILES is read from it.

How the values were obtained:
[1] = molecular target: T1, JNK3α1 (Homo sapiens, UniProt P53779); assay: FRET displacement of labeled JIP1 peptide, JNK3α1; assay type: binding; details: FRET IC50 for displacement of labeled JIP1 peptide, Inactive JNK3α1
[2] = molecular target: JNK3α1 (39–422) (UniProt P53779-2 39-422); assay: ITC
[3] = molecular target: Inactive JNK1β1 (UniProt P45983-3 1-384); assay: FRET or BRET
[4] = molecular target: Active JNK1β1 (UniProt P45983-3 1-384, phosphorylated in the activation loop by incubation with active MKK4 and MKK7); assay: FRET or BRET
[5] = molecular target: Inactive JNK3α1, P53779; assay: FRET or BRET
[6] = molecular target: active JNK3α1 (39–422) (UniProt P53779)
[7] = molecular target: T1, JNK3α1; assay: Km of protein substrates for JNK3α1; assay type: biochemical; details: read-out: Km for JNK3α1; protein substrate

Molecule	Kd [2]	dH [2]	IC50 [3]	IC50 [4]	also measured
CC(C)C[C@H](NC(=O)[C@H](CO)NC(=O)CNC(=O)[C@@H]1CCCN1C(=O)[C@H](CCCNC(=N)N)NC(=O)[C@@H](NC(=O)[C@@H](NC(=O)[C@H](C)N)C(C)C)C(C)C)C(=O)N[C@@H](CC(=O)O)C(=O)N[C@@H](CC(C)C)C(=O)N1CCC[C@H]1C(=O)O [pepSAB] (H-AVVRPGSLDLP-OH)	–	–	–	–	IC50 [1]: 834 ± 105 µM
CC(C)C[C@H](NC(=O)[C@H](CC(N)=O)NC(=O)[C@H](CC(C)C)NC(=O)[C@@H](NC(=O)[C@@H](NC(=O)[C@@H]1CCCN1C(=O)[C@H](CCCN=C(N)N)NC(=O)[C@H](CCCCN)NC(=O)[C@@H]1CCCN1C(=O)[C@@H](N)CCCN=C(N)N)[C@@H](C)O)[C@@H](C)O)C(=O)N[C@@H](Cc1ccccc1)C(=O)O [pepJIP] (H-RPKRPTTLNLF-OH)	–	–	–	–	IC50 [1]: 1.7 ± 0.4 µM
RPKRPTTLNLF [pepJIPhu(157–167)]	0.8 ± 0.1 µM	-7.65 kcal/mol	2.5 ± 0.1 µM	0.68 ± 0.02 µM	IC50 [5]: 1.7 µM
RPKHPTTLNLF [JIP1 R160H]	11.7 ± 1 µM	-6.71 kcal/mol	–	–	–
His-SAB (1–390) (domain or fragment) MDAALKRSRSEEPAEILPPARDEEEEEEEGMEQGLEEEEEVDPRIQGELEKLNQSTDDINRRETELEDARQKFRSVLVEATVKLDELVKKIGKAVEDSKPYWEARRVARQAQLEAQKATQDFQRATEVLRAAKETISLAEQRLLEDDKRQFDSAWQEMLNHATQRVMEAEQTKTRSELVHKETAARYNAAMGRMRQLEKKLKRAINKSKPYFELKAKYYVQLEQLKKTVDDLQAKLTLAKGEYKMALKNLEMISDEIHERRRSSAMGPRGCGVGAEGSSTSVEDLPGSKPEPDAISVASEAFEDDSCSNFVSEDDSETQSVSSFSSGPTSPSEMPDQFPAVVRPGSLDLPSPVSLSEFGMMFPVLGPRSECSGASSPECEVERGDRAEGA	–	–	–	–	Km of SAB (1–390) as substrate of JNK3α1 [6]: 0.77 µM
SAB (1–390): recombinant SAB protein substrate for JNK kinase assays (protein, left off: His, end not stated, kept) MDAALKRSRSEEPAEILPPARDEEEEEEEGMEQGLEEEEEVDPRIQGELEKLNQSTDDINRRETELEDARQKFRSVLVEATVKLDELVKKIGKAVEDSKPYWEARRVARQAQLEAQKATQDFQRATEVLRAAKETISLAEQRLLEDDKRQFDSAWQEMLNHATQRVMEAEQTKTRSELVHKETAARYNAAMGRMRQLEKKLKRAINKSKPYFELKAKYYVQLEQLKKTVDDLQAKLTLAKGEYKMALKNLEMISDEIHERRRSSAMGPRGCGVGAEGSSTSVEDLPGSKPEPDAISVASEAFEDDSCSNFVSEDDSETQSVSSFSSGPTSPSEMPDQFPAVVRPGSLDLPSPVSLSEFGMMFPVLGPRSECSGASSPECEVERGDRAEGA	–	–	–	–	Km [7]: 0.77 ± 0.09 µM

Continued, in another order:

Kd [2]	dH [2]	IC50 [3]	IC50 [4]	Molecule	also measured
4.9 ± 0.5 µM	-7.11 kcal/mol	–	–	RPKRPGTLNLF [JIP1 T162G]	–
32.1 ± 3.2 µM	-5.46 kcal/mol	–	–	RPKQPTTLNLF [JIP1 R160Q]	–
–	–	350 ± 12 µM	169 ± 2 µM	KHKHEMTLKFG [pepATF2Hu(46–56)]	–
17.2 ± 0.6 µM	-4.02 kcal/mol	612 ± 21 µM	386 ± 10 µM	AVVRPGSLDLP [pepSABhu(40–350)]	IC50 [5]: 834 µM
